Results on one substance are retold here after article PMC5018458 (Bioorganic & medicinal chemistry letters, 2016).

The subject of one series is M21 human melanoma cells. Briefly: Cellular efflux in M21 human melanoma cells. The format is cell-based. The note with it: M21 cells loaded 2 h at 37 °C, then 2 h of incubation in the culture medium.
For series [1], the system named is M21 human melanoma-xenografted nude mice. The series is described as follows: Biodistribution in M21 human melanoma-xenografted nude mice. The format is in vivo. In general terms: Xenograft models place foreign cells or tissue in a host animal.
Series [2] deals with M21 human melanoma xenografts. The series is described as follows: SPECT/CT imaging of M21 human melanoma-xenografted nude mouse. The format is in vivo. The conditions noted are these: about 7.4 MBq iv tail vein, 2 h post-injection.
Another series has as its system B16/F1 melanoma. The note with it: 2 h post-injection; cited from earlier work.

As to “hydrazinonicotinamide-8-aminooctanoic acid-Nle-c[Asp-His-DPhe-Arg-Trp-Lys]-CONH2 (sidechain bridge or staple) [^99mTc(EDDA)-HYNIC-AocNle-CycMSHhex]”, the “Activity remained inside the cells (cellular efflux)” value with M21 human melanoma cells is reported as 66%. Moreover, the “Uptake ratio Tumor/kidney” value in series [1] (0.5 h post-injection) stood at 0.40; in series [1] (2 h post-injection), 0.71; in series [1] (2 h post-injection, NDP blockade (co-injection of 10 μg NDP-MSH)), 0.17; in series [1] (4 h post-injection), 0.95; in series [1] (24 h post-injection), 1.13. Further, in series [1] (2 h post-injection, 10 μg (6.07 nmol) NDP-MSH co-injected), the “Tumor uptake blocked by co-injection of non-radioactive NDP-MSH” value was found to be 80%. Further, the “Intestines, percent injected dose” value in series [1] (mouse, in vivo) was found to be 1.65±0.73 %ID. For the same substance, in series [1] (mouse, in vivo), the “Urine, percent injected dose (urinary clearance)” value is 92.23±1.52 %ID. Moreover, in series [2], the “Visualization of M21 human melanoma xenografts by SPECT/CT” value was “clearly visualized”. Besides, in the series on B16/F1 melanoma, the “Visualization of B16/F1 melanoma lesions by SPECT/CT” value is recorded as “clearly visualized”.
